This is an account of results in publication PMC4127636 (The Biochemical journal, 2012).

Changes are numbered by the printed parent chain. Names may count otherwise.

One series deals with T1, YeiG (Escherichia coli, UniProt P33018).
T1 sequence (P33018 1-278): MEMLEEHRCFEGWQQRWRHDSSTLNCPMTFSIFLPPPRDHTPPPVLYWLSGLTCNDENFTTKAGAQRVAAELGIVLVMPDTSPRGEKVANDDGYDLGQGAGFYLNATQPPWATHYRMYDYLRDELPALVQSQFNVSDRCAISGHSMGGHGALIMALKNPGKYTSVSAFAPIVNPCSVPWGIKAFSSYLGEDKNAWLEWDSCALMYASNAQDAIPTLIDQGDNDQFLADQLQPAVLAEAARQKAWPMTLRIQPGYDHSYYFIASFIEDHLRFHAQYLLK
Briefly: esterase activity, temperature profile. Type of series: biochemical. The following applies: 50 mM potassium Hepes pH 8.0; temperature varied.

Another series has as its target T2, Atu1476 (Agrobacterium fabrum, UniProt A9CJ11).
T2 sequence (A9CJ11 1-277): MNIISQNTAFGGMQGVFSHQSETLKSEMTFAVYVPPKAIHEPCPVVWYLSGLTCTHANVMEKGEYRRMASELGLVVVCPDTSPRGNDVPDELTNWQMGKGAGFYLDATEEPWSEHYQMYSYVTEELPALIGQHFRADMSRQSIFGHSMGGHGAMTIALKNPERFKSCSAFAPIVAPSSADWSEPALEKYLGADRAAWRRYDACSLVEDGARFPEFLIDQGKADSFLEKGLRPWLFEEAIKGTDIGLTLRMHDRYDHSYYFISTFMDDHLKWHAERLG
Briefly: esterase activity, temperature profile. The series is classed as biochemical. The conditions noted are these: 50 mM potassium Hepes pH 8.0; temperature varied.

The target of a further series is T3, BioH (Escherichia coli, UniProt P13001).
T3 sequence (P13001 1-256): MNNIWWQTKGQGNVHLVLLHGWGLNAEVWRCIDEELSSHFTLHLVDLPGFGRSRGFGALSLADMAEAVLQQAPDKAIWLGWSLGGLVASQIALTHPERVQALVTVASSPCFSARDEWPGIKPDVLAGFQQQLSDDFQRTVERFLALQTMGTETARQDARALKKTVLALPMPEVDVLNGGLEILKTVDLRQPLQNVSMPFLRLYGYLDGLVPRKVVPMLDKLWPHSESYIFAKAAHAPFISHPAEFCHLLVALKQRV
As to the kind of experiment: esterase activity, temperature profile. The following applies: 50 mM potassium Hepes pH 8.0; temperature varied. Type of series: biochemical.

Substrate in series [1]: CC(=O)Oc1ccc([N+](=O)[O-])cc1
As to the kind of experiment: spectrophotometric esterase assay. The series is classed as biochemical, Oleispira antarctica. The conditions noted are these: no salt, 50 mM potassium Hepes pH 8.0, 20°C.

Substrate in series [2]: CCCC(=O)Oc1cccc2ccccc12
Briefly: spectrophotometric esterase assay. Type of series: biochemical, Oleispira antarctica. The following applies: 0.4 M NaCl, 50 mM potassium Hepes pH 8.0, 20°C.

Substrate in series [3]: CCC(=O)Oc1ccc([N+](=O)[O-])cc1
Briefly: spectrophotometric esterase assay. The following applies: 0.4 M NaCl, 50 mM potassium Hepes pH 8.0, 20°C. Type of series: biochemical, Oleispira antarctica.

Substrate in series [4]: CCCC(=O)Oc1ccc([N+](=O)[O-])cc1
Briefly: spectrophotometric esterase assay. The series is classed as biochemical, Oleispira antarctica. The following applies: 0.4 M NaCl, 50 mM potassium Hepes pH 8.0, 20°C.

Substrate in series [5]: CCC(=O)Oc1cccc2ccccc12
As to the kind of experiment: spectrophotometric esterase assay. Type of series: biochemical, Oleispira antarctica. The conditions noted are these: 0.4 M NaCl, 50 mM potassium Hepes pH 8.0, 20°C.

Substrate in series [6]: CC(=O)Oc1cccc2ccccc12
As to the kind of experiment: spectrophotometric esterase assay. The series is classed as biochemical, Oleispira antarctica. The following applies: 50 mM potassium Hepes pH 8.0, 20°C.

One may read the Km as the substrate concentration at which the rate is half of its maximum. By kcat is commonly meant the number of substrate molecules converted per active site and unit of time at saturation. Broadly, the kcat/Km is the turnover number divided by the Michaelis constant.

Regarding `CCC(=O)Oc1ccc([N+](=O)[O-])cc1` [pNP-propionate], the “esterase activity, temperature profile” value at YeiG is “using α-naphthyl acetate (A), pNP-butyrate (B and D) and pNP-propionate (C) as substrates”.

As for `CCCC(=O)Oc1ccc([N+](=O)[O-])cc1` [pNP-butyrate], the “esterase activity, temperature profile” value was “using α-naphthyl acetate (A), pNP-butyrate (B and D) and pNP-propionate (C) as substrates” on Atu1476; “using α-naphthyl acetate (A), pNP-butyrate (B and D) and pNP-propionate (C) as substrates” on BioH.

B1: OLEI01171 (Oleispira antarctica) (protein)
chain: MSIENLSSNKSFGGWHKQYSHVSNTLNCAMRFAIYLPPQASTGAKVPVLYWLSGLTCSDENFMQKAGAQRLAAELGIAIVAPDTSPRGEGVADDEGYDLGQGAGFYVNATQAPWNRHYQMYDYVVNELPELIESMFPVSDKRAIAGHSMGGHGALTIALRNPERYQSVSAFSPINNPVNCPWGQKAFTAYLGKDTDTWREYDASLLMRAAKQYVPALVDQGEADNFLAEQLKPEVLEAAASSNNYPLELRSHEGYDHSYYFIASFIEDHLRFHSNYLNA
Take B1: the Km in series [1] was 700 ± 100 µM; in [2], 200 ± 40 µM; in series [3], 700 ± 200 µM; in series [4], 900 ± 300 µM; in series [5] it was 200 ± 30 µM; in series [6] (no salt) it was 400 ± 30 µM. Also, the kcat in series [1] was determined as 0.2 ± 0.03 s⁻¹; in series [2], 0.06 ± 0.01 s⁻¹; in [3], 0.3 ± 0.03 s⁻¹; in series [4], 0.2 ± 0.03 s⁻¹; in series [5], 1.5 ± 0.1 s⁻¹; in series [6] (no salt) it was 0.8 ± 0.02 s⁻¹. Besides, the kcat/Km in series [1] was 300 M⁻¹ s⁻¹; in [2], 300 M⁻¹ s⁻¹; in series [3] it was 400 M⁻¹ s⁻¹; in series [4], 200 M⁻¹ s⁻¹; in series [5] it was 8000 M⁻¹ s⁻¹; in [6] (no salt), 2000 M⁻¹ s⁻¹.

B2: OLEI01171 (Oleispira antarctica; A224K) (protein)
chain: B1 chain with A223K
Consider B2, for which, in series [6] (0.4 M NaCl), the Km is 300 ± 40 µM, the kcat is 1.1 ± 0.1 s⁻¹ and the kcat/Km is 4000 M⁻¹ s⁻¹.

B3: OLEI01171 (Oleispira antarctica; S59A) (protein)
chain: B1 chain with S58A
Consider B3, for which, in series [6] (0.4 M NaCl), the Km stood at 400 ± 10 µM, the kcat was determined as 0.8 ± 0.1 s⁻¹ and the kcat/Km was found to be 2000 M⁻¹ s⁻¹.

B4: OLEI01171 (Oleispira antarctica; Y98A) (protein)
chain: B1 chain with Y97A
For the molecule B4, in [6] (0.4 M NaCl), the Km was determined as 1700 ± 300 µM, the kcat was 2.9 ± 0.3 s⁻¹ and the kcat/Km was 2000 M⁻¹ s⁻¹.

B5: OLEI01171 (Oleispira antarctica; K66A) (protein)
chain: B1 chain with K65A
With B5, in series [6] (0.4 M NaCl), the Km turned out to be 400 ± 10 µM, the kcat was determined as 1.2 ± 0.1 s⁻¹ and the kcat/Km turned out to be 3000 M⁻¹ s⁻¹.

B6: OLEI01171 (Oleispira antarctica; N62A) (protein)
chain: B1 chain with N61A
With B6, in series [6] (0.4 M NaCl), the Km was found to be 500 ± 100 µM, the kcat worked out at 1.8 ± 0.2 s⁻¹ and the kcat/Km turned out to be 4000 M⁻¹ s⁻¹.

B7: OLEI01171 (Oleispira antarctica; N226K) (protein)
chain: B1 chain with N225K
For the molecule B7, in series [6] (0.4 M NaCl), the Km was found to be 400 ± 100 µM, the kcat was 3 ± 0.2 s⁻¹ and the kcat/Km is 8000 M⁻¹ s⁻¹.

B8: OLEI01171 (Oleispira antarctica; C58A) (protein)
chain: B1 chain with C57A
For B8, in series [6] (0.4 M NaCl), the Km was 200 ± 10 µM, the kcat turned out to be 0.9 ± 0.02 s⁻¹ and the kcat/Km turned out to be 5000 M⁻¹ s⁻¹.

B9: OLEI01171 (Oleispira antarctica; S173A) (protein)
chain: B1 chain with S172A
In the case of B9, in series [6] (0.4 M NaCl), the Km is 600 ± 100 µM, the kcat was determined as 5.3 ± 0.3 s⁻¹ and the kcat/Km was found to be 9000 M⁻¹ s⁻¹.

B10: OLEI01171 (Oleispira antarctica; N226A) (protein)
chain: B1 chain with N225A
Take B10: in [6] (0.4 M NaCl), the Km was 500 ± 100 µM, the kcat is 1.7 ± 0.1 s⁻¹ and the kcat/Km was 3000 M⁻¹ s⁻¹.
